Assay [1] deals with T1, progesterone receptor isoform B (PRB), full length (Homo sapiens (Human), UniProt P06401 1-933).
T1 construct: From expression vector pSG5 PRB; expressed in 293T or SHM cells, or translated in rabbit reticulocyte lysate with ^35S methionine for the GST pulldown; also called ^35S-labeled PRB; full length PR
T1 sequence: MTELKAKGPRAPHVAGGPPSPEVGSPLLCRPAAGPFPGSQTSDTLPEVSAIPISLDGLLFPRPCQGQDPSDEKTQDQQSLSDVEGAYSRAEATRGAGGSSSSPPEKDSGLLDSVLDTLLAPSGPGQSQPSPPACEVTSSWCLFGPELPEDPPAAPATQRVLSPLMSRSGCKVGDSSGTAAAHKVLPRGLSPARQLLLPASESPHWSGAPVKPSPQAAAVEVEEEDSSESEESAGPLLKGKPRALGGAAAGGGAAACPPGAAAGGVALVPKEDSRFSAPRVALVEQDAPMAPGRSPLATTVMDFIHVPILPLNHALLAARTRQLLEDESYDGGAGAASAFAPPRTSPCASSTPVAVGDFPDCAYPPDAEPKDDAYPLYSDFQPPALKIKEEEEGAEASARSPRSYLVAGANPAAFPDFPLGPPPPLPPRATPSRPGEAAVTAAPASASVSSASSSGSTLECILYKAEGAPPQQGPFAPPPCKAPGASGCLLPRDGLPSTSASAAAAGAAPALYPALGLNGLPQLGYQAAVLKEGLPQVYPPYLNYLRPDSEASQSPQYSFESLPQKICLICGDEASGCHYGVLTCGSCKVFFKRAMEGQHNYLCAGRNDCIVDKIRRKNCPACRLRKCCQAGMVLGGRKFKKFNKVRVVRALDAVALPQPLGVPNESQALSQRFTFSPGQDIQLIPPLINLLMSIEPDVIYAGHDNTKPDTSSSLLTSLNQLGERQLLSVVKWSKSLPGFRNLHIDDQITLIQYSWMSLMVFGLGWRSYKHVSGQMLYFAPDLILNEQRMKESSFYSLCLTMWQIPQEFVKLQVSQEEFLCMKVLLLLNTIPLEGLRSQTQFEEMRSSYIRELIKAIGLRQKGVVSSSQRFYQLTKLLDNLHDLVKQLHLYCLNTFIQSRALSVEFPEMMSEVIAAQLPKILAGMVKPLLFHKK
Put plainly: summary of Example 1; in vivo and in vitro protein interaction assays.

Assay [2] relates to G5-Luc reporter. As to the kind of experiment: Mammalian two-hybrid system with G5-Luc reporter. The class given is cell-based, Syrian hamster. Conditions: SHM cells. How it is done:
FIG. 2. PSF interacts with PR in vivo. (A) 293T cells were transient transfected with an expression vector for PRB and/or His-PSF for 18 hours, followed by lysis in NETN buffer with NaCl at 150 mM. Whole cell lysate (WCL) was incubated with PR antibody (C-20, Santa Cruz) or anti-His tag antibody (H-15, Santa Cruz), using protein A/G-sepharose as an absorbent. Resins were washed with NETN containing 100 mM NaCl, and bound proteins were detected by western blotting with antibodies to PR (C-20) or His-PSF (H-15). (B) Western blots of PSF (left) and PR (right) in immunoprecipitates of control mouse IgG or mouse anti-PR (AB52) or anti-PSF (B92) antibody from extracts of T47D cells. […] Luciferase activity was measured and normalized by β-galatosidase activity. […]
For immunoprecipitation of the endogenous PR and PSF, T47D cells cultured in 150 mm dishes were lysed in 800 μl NETN buffer containing 150 mM NaCl plus protease inhibitor cocktail. […] Gels were treated with Enhancer (NEN, Boston, US) dried and analyzed by autoradiography. • Cell culture and transient transfection: SHM cells and 293T cells were maintained in DMEM plus 5% FCS (Sigma) as described before (22). […] Luciferase activity was determined by using the luciferin reagent (Promega) according to manufacture's protocol. […]

B1: His-PSF (6xHis-tagged full length human PSF, amino acid 1-707) (other)
chain: MSRDRFRSRGGGGGGFHRRGGGGGRGGLHDFRSPPPGMGLNQNRGPMGPGPGQSGPKPPIPPPPPHQQQQQPPPQQPPPQQPPPHQPPPHPQPHQQQQPPPPPQDSSKPVVAQGPGPAPGVGSAPPASSSAPPATPPTSGAPPGSGPGPTPTPPPAVTSAPPGAPPPTPPSSGVPTTPPQAGGPPPPPAAVPGPGPGPKQGPGPGGPKGGKMPGGPKPGGGPGLSTPGGHPKPPHRGGGEPRGGRQHHPPYHQQHHQGPPPGGPGGRSEEKISDSEGFKANLSLLRRPGEKTYTQRCRLFVGNLPADITEDEFKRLFAKYGEPGEVFINKGKGFGFIKLESRALAEIAKAELDDTPMRGRQLRVRFATHAAALSVRNLSPYVSNELLEEAFSQFGPIERAVVIVDDRGRSTGKGIVEFASKPAARKAFERCSEGVFLLTTTPRPVIVEPLEQLDDEDGLPEKLAQKNPMYQKERETPPRFAQHGTFEYEYSQRWKSLDEMEKQQREQVEKNMKDAKDKLESEMEDAYHEHQANLLRQDLMRRQEELRRMEELHNQEMQKRKEMQLRQEEERRRREEEMMIRQREMEEQMRRQREESYSRMGYMDPRERDMRMGGGGAMNMGDPYGSGGQKFPPLGGGGGIGYEANPGVPPATMSGSMMGSDMRTERFGQGGAGPVGGQGPRGMGPGTPAGYGRGREEYEGPNKKPRF
notes: Expressed in 293T or SHM cells (co-immunoprecipitation, reporter assays) or translated in rabbit reticulocyte lysate with ^35S methionine (GST pulldown); 1 only as 'e.g.' of wild type PSF; also called His tagged PSF; His tagged PSF1-707; not shown: N-terminal 6xHis tag of vector pcDNA3.1 6xHis
Take B1: in assay [1], the binding result was “binds”.

B2: pM-PSF: PSF fused to C-terminus of Gal4-DBD in pM vector (protein)
chain: MKLLSSIEQACDICRLKKLKCSKEKPKCAKCLKNNWECRYSPKTKRSPLTRAHLTEVESRLERLEQLFLLIFPREDLDMILKMDSLQDIKALLTGLFVQDNVNKDAVTDRLASVETDMPLTLRQHRISATSSSEESSNKGQRQLTVSMSRDRFRSRGGGGGGFHRRGGGGGRGGLHDFRSPPPGMGLNQNRGPMGPGPGQSGPKPPIPPPPPHQQQQQPPPQQPPPQQPPPHQPPPHPQPHQQQQPPPPPQDSSKPVVAQGPGPAPGVGSAPPASSSAPPATPPTSGAPPGSGPGPTPTPPPAVTSAPPGAPPPTPPSSGVPTTPPQAGGPPPPPAAVPGPGPGPKQGPGPGGPKGGKMPGGPKPGGGPGLSTPGGHPKPPHRGGGEPRGGRQHHPPYHQQHHQGPPPGGPGGRSEEKISDSEGFKANLSLLRRPGEKTYTQRCRLFVGNLPADITEDEFKRLFAKYGEPGEVFINKGKGFGFIKLESRALAEIAKAELDDTPMRGRQLRVRFATHAAALSVRNLSPYVSNELLEEAFSQFGPIERAVVIVDDRGRSTGKGIVEFASKPAARKAFERCSEGVFLLTTTPRPVIVEPLEQLDDEDGLPEKLAQKNPMYQKERETPPRFAQHGTFEYEYSQRWKSLDEMEKQQREQVEKNMKDAKDKLESEMEDAYHEHQANLLRQDLMRRQEELRRMEELHNQEMQKRKEMQLRQEEERRRREEEMMIRQREMEEQMRRQREESYSRMGYMDPRERDMRMGGGGAMNMGDPYGSGGQKFPPLGGGGGIGYEANPGVPPATMSGSMMGSDMRTERFGQGGAGPVGGQGPRGMGPGTPAGYGRGREEYEGPNKKPRF
For B2, the “luciferase activity on co-transfection with VP16-PRA and VP16-PRB” value in assay [2] (G5-Luc, ligand-independent) was “dramatic increase of luciferase activity”. The “reduction in luciferase activity compared to pM empty vector” value in assay [2] (co-transfected with G5-Luc) was 70%.

For the origin of these results see patent US20070286806A1, “Methods and Compositions for Modulating a Steroid Receptor” (Mount Sinai Hospital, priority 2004, published 2007).
